Experimental data: patent US20080267971A1 (published 2008)

T1: human Angiopoietin-2 (human, UniProt O15123 19-496)
T1 construct: Mostly bought recombinant protein (R&D Systems 623-AM/CF, 623-AN; biotinylated BT623) or supernatant of transfected 293F cells; also called Ang-2; rhAng-2
T1 sequence: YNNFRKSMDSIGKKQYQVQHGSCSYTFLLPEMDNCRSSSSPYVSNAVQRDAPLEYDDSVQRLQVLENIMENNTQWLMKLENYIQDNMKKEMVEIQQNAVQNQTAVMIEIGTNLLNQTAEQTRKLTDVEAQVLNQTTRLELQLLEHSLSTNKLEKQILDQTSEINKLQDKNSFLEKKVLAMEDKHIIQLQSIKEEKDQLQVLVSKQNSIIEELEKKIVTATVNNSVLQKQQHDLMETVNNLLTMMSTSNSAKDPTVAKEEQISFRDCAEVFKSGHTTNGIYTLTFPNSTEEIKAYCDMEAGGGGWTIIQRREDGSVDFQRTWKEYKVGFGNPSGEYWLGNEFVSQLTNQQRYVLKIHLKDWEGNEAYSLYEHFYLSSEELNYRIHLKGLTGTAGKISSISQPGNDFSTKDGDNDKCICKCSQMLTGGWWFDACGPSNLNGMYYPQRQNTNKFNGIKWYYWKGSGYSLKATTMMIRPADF

T2: Mouse/Human chimeric Ang-2 with the human StuI-TfiI fragment (mouse/human chimera, UniProt O35608 19-496)
T2 construct: also called Stu-Tfil 310-400
T2 chain: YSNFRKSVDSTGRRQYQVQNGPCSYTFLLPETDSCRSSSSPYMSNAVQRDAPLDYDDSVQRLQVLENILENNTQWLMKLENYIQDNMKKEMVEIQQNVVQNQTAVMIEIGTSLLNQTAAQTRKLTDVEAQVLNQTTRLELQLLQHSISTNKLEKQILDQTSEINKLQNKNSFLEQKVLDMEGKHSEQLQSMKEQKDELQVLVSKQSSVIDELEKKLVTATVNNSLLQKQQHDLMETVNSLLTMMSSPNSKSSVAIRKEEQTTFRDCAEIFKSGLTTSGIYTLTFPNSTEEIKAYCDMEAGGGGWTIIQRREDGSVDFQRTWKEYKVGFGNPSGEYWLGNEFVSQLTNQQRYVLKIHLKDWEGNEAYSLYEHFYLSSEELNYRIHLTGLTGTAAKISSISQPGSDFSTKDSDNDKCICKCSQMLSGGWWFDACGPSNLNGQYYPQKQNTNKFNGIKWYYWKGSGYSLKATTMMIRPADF

T3: human Ang-2 H375Q (human, UniProt O15123 19-496)
T3 sequence: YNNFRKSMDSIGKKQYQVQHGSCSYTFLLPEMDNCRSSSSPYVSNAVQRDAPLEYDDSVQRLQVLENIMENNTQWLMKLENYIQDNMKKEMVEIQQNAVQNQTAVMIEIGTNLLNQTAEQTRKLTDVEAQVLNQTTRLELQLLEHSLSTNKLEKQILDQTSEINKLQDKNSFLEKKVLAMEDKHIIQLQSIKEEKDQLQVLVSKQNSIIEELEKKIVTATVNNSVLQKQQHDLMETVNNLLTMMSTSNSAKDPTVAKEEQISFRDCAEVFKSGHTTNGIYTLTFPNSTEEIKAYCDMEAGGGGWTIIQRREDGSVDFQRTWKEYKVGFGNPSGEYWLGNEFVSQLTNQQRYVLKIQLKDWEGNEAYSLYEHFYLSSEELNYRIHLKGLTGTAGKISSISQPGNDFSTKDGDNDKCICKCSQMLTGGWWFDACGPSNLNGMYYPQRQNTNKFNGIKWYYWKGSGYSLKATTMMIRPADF

T4: human Angiopoietin-1 (human, UniProt Q15389 20-498, limits assumed)
T4 construct: Bought recombinant protein (R&D Systems 293-AN-025/CF) or supernatant of transfected 293F cells; also called Ang-1; recombinant Ang-1
T4 sequence: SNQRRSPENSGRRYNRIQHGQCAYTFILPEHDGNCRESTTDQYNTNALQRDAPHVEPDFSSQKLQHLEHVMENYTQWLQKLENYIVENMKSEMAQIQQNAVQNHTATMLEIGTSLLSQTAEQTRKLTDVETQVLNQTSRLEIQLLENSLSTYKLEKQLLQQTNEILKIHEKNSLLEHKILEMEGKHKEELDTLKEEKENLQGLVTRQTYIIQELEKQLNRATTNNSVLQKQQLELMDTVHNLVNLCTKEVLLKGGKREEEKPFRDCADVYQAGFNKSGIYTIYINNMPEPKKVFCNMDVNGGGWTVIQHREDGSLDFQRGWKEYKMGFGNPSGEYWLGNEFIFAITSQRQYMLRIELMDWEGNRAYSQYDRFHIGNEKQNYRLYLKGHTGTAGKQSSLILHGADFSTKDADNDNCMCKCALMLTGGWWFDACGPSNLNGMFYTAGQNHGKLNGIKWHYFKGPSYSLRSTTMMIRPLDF


Key:
[1] = biological target: T1, human Angiopoietin-2; experiment: inhibition of rhAng-2 binding to its receptor
[2] = biological target: T1, human Angiopoietin-2; experiment: Biacore; kd held constant (*)
Description: (§1) The label-free surface plasmon resonance (SPR), or Biacore, was utilized to measure the antibody affinity to the antigen. For this purpose, a high-density goat anti-human antibody surface over a CM5 Biacore chip was prepared using routine amine coupling. All the purified mAbs were diluted to approximately 8 μg/ml in HBS-P running buffer containing 100 μg/ml BSA and 10 mg/mL carboxymethyldextran. Each mAb was captured on a separate surface using a 42-second contact time, and a 5-minute wash for stabilization of the mAb baseline.
(§2) Data were fit globally to a 1:1 interaction model to determine the binding kinetics.

[3] = biological target: T1, human Angiopoietin-2; experiment: cell-based or functional assay
[4] = biological target: T1, human Angiopoietin-2; experiment: Biacore, mAb captured
Description: as §1, §2

[5] = biological target: T2, Mouse/Human chimeric Ang-2 with the …; experiment: ELISA
[6] = biological target: T3, human Ang-2 H375Q; experiment: ELISA
[7] = biological target: T4, human Angiopoietin-1; experiment: capture ELISA
Description: The binding of the top 27 human monoclonal antibodies was detected with a HRP-conjugated goat anti-human antibody, followed by colorimetric horseradish peroxidase substrate (Enhanced K-Blue TMB substrate Neogen Corporation). The absorbance of each well of the ELISA plates was measured at 450 nm on a microplate autoreader.

OD650 in inhibition assay [1] [OD650]	koff [2] [s⁻¹]	EC50, inhibition of Ang-2-induced Tie2 phosphorylation (HEK293F/Tie2, ELISA) [3] [µg/mL]	Kd [4] [pM]	kon [4] [M⁻¹ s⁻¹]	% of binding to human Ang-2 [5] [%]	% of binding to human Ang-2 [6] [%]	koff [4] [s⁻¹]	binding result [7]	Binder
0.0824		0.733	581	150000	28	100	8.7e-05	no binding	mAb 5.101.1 (antibody, V domains shown, Human hybridoma IgG (XenoMouse); also called x5.101) VH: not shown VL: EIVMTQSPATLSVSPGERATLSCRASQSLISNLAWYQQKPGQAPRLLIFGASTRATGIPARFSGSGSGTEFTLTISSLQSEDFAVYYCHQYNNWWTFGQGTKVEIKR
0.0419		0.008	744	150000	23	100	0.00011	no binding	mAb 5.86.1 (antibody, V domains shown, Human hybridoma IgG (XenoMouse); also called x5.86) VH: QVQLVQSGAEVKKPGASVKVSCKASGYTFTGYHMYWVRQAPGQGLEWLGWINPNSGGTNYAQKFQGRVTMTRDTSISTAYMELSRLRSDDTAVYYCVRDQGIAAAGPFDYWCQGTLVTVSS VL: DIRMTQSPSSLSASVGDRVTITCRASQRISTYLNWYQQKPGKAPKFLIYAASSLQSGVPSRFSGSGSGTDFTLTISSLQPEDFATYYCQQSYTTPFTFGPGTKVDIKR
0.101	≤ 1e-05	0.095	≤ 45	220000		100		no binding	mAb 5.103.1 (antibody, V domains shown, Human hybridoma IgG (XenoMouse); also called 5.103.3; x5.103) VH: QVQLVQSGAEVKKPGASVKVSCKASGYTFTGYYLYWVPQAPGQGLEWMGWISPNSGGTNYAQKFQGRVTMTRDTSISTAYMELSRLRSDDTAVYYCARDQVIAVAGPFDYWAQGTLVTVSS VL: not shown

More lines, now with the values behind:

Binder	OD650 in inhibition assay [1] [OD650]	koff [2] [s⁻¹]	EC50, inhibition of Ang-2-induced Tie2 phosphorylation (HEK293F/Tie2, ELISA) [3] [µg/mL]	Kd [4] [pM]	kon [4] [M⁻¹ s⁻¹]	% of binding to human Ang-2 [5] [%]	% of binding to human Ang-2 [6] [%]	koff [4] [s⁻¹]	binding result [7]
mAb 3.19.3 (antibody, V domains shown, Human hybridoma IgG (XenoMouse); also called x3.19) VH: QVQLVESGGGVVQPGRSLRLSCAASGFTFTNYGMHWGRQAPGKGLEWVAVISHDGNNKYYVDSVKGRFTISRDNSKNTLYLQMNSLRAEDTAVYYCAREGIDFWSGLNWFDPWGQGTLVTVSS VL: EIVLTQSPGTLSLSPGERATLSCRASQSITGSYLAWYQQKPGQAPRLLICGASSWATGIPDRFSGSGSGTDFTLTISRLEPEDFAVYYCQQYSSSPITFGQGTRLEIKR	0.0633	≤ 1e-05	0.006	≤ 111	90000	100	100		
mAb 3.31.2 (antibody, V domains shown, Human hybridoma IgG (XenoMouse); also called x3.31) VH: EVQLVESGGGLVQPGGSLRLSCAASGFTFSSYWMSWVRQAPGKGLEWVANIKQDGSDKYYVDSVKGRFTISRDNAKNSLYLRMNSLRAEDTAVFYCARDMGSGWFDYWGQGTLVTVSS VL: EVVMTQSPATLSVSPGERATLSCRASQSVGSNLAWYQQKPGQAPRLLIYGASTRATGIPARFSGSGSGTEFTLTISSLQSEDFAVYCCQQYNHWWTFGQGTKVEIKR	0.0516	≤ 1e-05	0.043	≤ 51	190000		100		no binding
mAb 5.40.2 (antibody, V domains shown, Human hybridoma IgG (XenoMouse); also called x5.40) VH: not shown VL: EIVMTQSPATLSVSPGERATLSCRASQSVSSNLVWYQQKPGQAPRLLIYDSSTRATGIPVRFSGSGSGTEFTLTISSLQSEDFAVYYCQQYNHWWTFGQGTKVEIKR	0.0691	≤ 1e-05		≤ 129	78000	65	100		no binding
